The term Kd denotes the equilibrium constant for the complex coming apart.

Substitutions are numbered along the chain they refer to.

T1: FGFR1 (Table 1) (UniProt P11362 22-376, limits assumed)
T1 construct: the construct is not described
T1 sequence (looked up): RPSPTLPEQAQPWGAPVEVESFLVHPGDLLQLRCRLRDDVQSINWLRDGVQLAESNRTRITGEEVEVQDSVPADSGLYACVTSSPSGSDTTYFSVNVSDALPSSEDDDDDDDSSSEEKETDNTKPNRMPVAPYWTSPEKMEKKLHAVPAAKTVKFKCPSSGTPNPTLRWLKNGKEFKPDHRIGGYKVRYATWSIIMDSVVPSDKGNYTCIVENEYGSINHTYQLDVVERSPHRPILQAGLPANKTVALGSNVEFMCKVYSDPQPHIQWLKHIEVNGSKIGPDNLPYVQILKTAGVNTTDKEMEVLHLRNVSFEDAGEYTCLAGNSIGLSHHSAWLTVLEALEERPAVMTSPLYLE

B1: PRO-012 (Fab, V domains shown)
VH: QVQLKESGPALVKPTQTLTLTCTFSGFSLSTSGVGVGWIRQPPGKALEWLALIDWDDDKYYSTSLKTRLTISKDTSKNQVVLTMTNMDPVDTATYYCARYHSWYEMGYYGSTVGYMFDYWGQGTLVTVSS
VL: DIELTQPPSVSVAPGQTARISCSGDALGDKYASWYQQKPGQAPVLVIYDDSDRPSGIPERFSGSNSGNTATLTISGTQAEDEADYYCQSYDFDFAVFGGGTKLTVLG
notes: HuCAL clone; the IC50 may be of the Fab-dHLX format
B2: PRO-054 (Fab, V domains shown)
VH: QVQLVQSGAEVKKPGASVKVSCKASGYTFTSYYMHWVRQAPGQGLEWMGWINPNSGGTNYAQKFQGRVTMTRDTSISTAYMELSSLRSEDTAVYYCARNMAYTNYQYVNMPHFDYWGQGTLVTVSS
VL: B1 VL with F92Y, D93F, F94K, A95L
notes: HuCAL clone
B3: PRO-021 (Fab, V domains shown)
VH: QVQLVQSGAEVKKPGSSVKVSCKASGGTFSSYAISWVRQAPGQGLEWMGGIIPIFGTANYAQKFQGRVTITADESTSTAYMELSSLRSEDTAVYYCARDNWFKPFSDVWGQGTLVTVSS
VL: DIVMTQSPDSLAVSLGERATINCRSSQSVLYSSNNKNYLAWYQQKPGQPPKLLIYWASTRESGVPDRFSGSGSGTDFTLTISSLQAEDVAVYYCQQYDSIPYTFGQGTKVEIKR
notes: as for B1
B4: PRO-024 (Fab, V domains shown)
VH: B3 VH with D99V, W101H, F102W, K103T, P104Y, F105T, S106F, V108Y
VL: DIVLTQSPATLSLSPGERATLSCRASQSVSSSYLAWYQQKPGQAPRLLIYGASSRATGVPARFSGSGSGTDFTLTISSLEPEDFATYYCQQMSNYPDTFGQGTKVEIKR
B5: PRO-001 Fab (Fab, V domains shown)
VH: QVQLQQSGPGLVKPSQTLSLTCAISGDSVSSNSAAWNWIRQSPGRGLEWLGRTYYRSKWYNDYAVSVKSRITINPDTSKNQFSLQLNSVTPEDTAVYYCARSYYPDFDYWGQGTLVTVSS
VL: DIELTQPPSVSVAPGQTARISCSGDALGDKYASWYQQKPGQAPVLVIYDDSDRPSGIPERFSGSNSGNTATLTISGTQAEDEADYYCQSYDGPDLWVFGGGTKLTVLG
notes: Human Fab from the HuCAL-Fab-1 library; also called human anti-FGFR3 Fab PRO-001; anti-FGFR3 antibody
B6: PRO-002 (Fab, V domains shown)
VH: QVQLVQSGAEVKKPGASVKVSCKASGYTFTSYYMHWVRQAPGQGLEWMGWINPNSGGTNYAQKFQGRVTMTRDTSISTAYMELSSLRSEDTAVYYCARDFLGYEFDYWGQGTLVTVSS
VL: B5 VL with G92Y, P93S, D94A, L95D, W96Y
notes: as for B1
B7: PRO-029 (Fab, V domains shown)
VH: QVQLVQSGAEVKKPGASVKVSCKASGYTFTSYYMHWVRQAPGQGLEWMGWINPNSGGTNYAQKFQGRVTMTRDTSISTAYMELSSLRSEDTAVYYCARTWQYSYFYYLDGGYYFDIWGQGTLVTVSS
VL: DIVLTQSPATLSLSPGERATLSCRASQSVSSSYLAWYQQKPGQAPRLLIYGASSRATGVPARFSGSGSGTDFTLTISSLEPEDFATYYCQQTNNAPVTFGQGTKVEIKR
notes: HuCAL clone
B8: PRO-026 (Fab, V domains shown)
VH: QVQLVQSGAEVKKPGASVKVSCKASGYTFTSYYMHWVRQAPGQGLEWMGWINPNSGGTNYAQKFQGRVTMTRDTSISTAYMELSSLRSEDTAVYYCARGYWYAYFTYINYGYFDNWGQGTLVTVSS
VL: DIALTQPASVSGSPGQSITISCTGTSSDVGGYNYVSWYQQHPGKAPKLMIYDVSNRPSGVSNRFSGSKSGNTASLTISGLQAEDEADYYCQSYDNNSDVVFGGGTKLTVLG
notes: HuCAL clone; the VL is headed 'MS-Pro-26-VL'; also called MS-Pro-26
B9: PRO-055 (Fab, V domains shown)
VH: QVQLVQSGAEVKKPGASVKVSCKASGYTFTSYYMHWVRQAPGQGLEWMGWINPNSGGTNYAQKFQGRVTMTRDTSISTAYMELSSLRSEDTAVYYCARSMNSTMYWYLRRVLFDHWGQGTLVTVSS
VL: B8 VL with N95M, N96Y, S97N, D98Y, V99I

T2 sequence (P22607 23-806 limits assumed): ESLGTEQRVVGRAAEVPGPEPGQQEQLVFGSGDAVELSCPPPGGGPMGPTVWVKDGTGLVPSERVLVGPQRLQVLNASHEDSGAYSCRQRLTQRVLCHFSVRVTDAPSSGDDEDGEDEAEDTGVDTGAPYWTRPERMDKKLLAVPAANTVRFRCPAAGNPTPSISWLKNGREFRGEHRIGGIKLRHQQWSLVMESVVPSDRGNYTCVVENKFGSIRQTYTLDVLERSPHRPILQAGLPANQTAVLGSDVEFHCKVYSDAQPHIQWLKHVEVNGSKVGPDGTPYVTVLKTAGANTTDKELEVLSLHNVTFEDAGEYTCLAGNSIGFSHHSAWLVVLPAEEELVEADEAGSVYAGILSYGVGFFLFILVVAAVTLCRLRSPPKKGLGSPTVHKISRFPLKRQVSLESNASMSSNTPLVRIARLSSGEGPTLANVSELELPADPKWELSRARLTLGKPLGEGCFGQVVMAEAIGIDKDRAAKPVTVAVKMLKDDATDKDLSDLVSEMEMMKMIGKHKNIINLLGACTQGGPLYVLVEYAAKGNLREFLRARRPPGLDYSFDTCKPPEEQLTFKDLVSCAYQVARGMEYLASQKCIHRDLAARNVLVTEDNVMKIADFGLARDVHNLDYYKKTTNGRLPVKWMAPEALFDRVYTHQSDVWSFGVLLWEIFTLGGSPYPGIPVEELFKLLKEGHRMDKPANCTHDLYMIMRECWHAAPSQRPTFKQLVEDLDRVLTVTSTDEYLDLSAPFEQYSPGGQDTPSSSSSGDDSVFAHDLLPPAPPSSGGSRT

The first assay has as its target T2, wild type FGFR3 expressed on cells (UniProt P22607 23-806, limits assumed). The assay can be described thus: cell-based or functional assay.
Regarding B1, the “IC50 FGFR3 (FGF9), FDCP-FGFR3 proliferation assay (dHLX format)” value (“IC50 FGFR3 (FGF9)” for short) was 58 nM.

For the molecule B2, the “IC50 FGFR3 (FGF9)” value came out at 45 nM.

Take B3: the “IC50 FGFR3 (FGF9)” value is 50 nM.

B4: the “IC50 FGFR3 (FGF9)” value worked out at 70 nM.

As for B5, the “IC50 FGFR3 (FGF9)” value stood at 19 nM.

B6: the “IC50 FGFR3 (FGF9)” value was determined as 360 nM.

In the case of B7, the “IC50 FGFR3 (FGF9)” value is 20 nM.

As to B8, the “IC50 FGFR3 (FGF9)” value came to 70 nM.

B9: the “IC50 FGFR3 (FGF9)” value is 34 nM.

Another assay concerns the target T2, wild type FGFR3 expressed on cells. The assay can be described thus: cell-based or functional assay. The source holds these as a separate data set.
On to B5, for which the “IC50 of FGF stimulated proliferation of FDCP-FGFR3 cells (XTT)” value came to 0.5 µg/mL.

In a further assay the target is FGFR3-Y373C expressed on B9 cells (UniProt P22607 23-806). Nature of the assay: cell-based or functional assay.
Chain of FGFR3-Y373C expressed on B9 cells (P22607 23-806 Y373C limits assumed): as the sequence (P22607 23-806 limits assumed) above, with Y351C counted along it
As to B5, the “IC50 of FGF-stimulated growth of B9 cells expressing Y373C-FGFR3” value was roughly 3 µg/mL.

In the next assay the target is FGFR3-F384L expressed on B9 cells (UniProt P22607 23-806). The assay can be described thus: cell-based or functional assay.
Chain of FGFR3-F384L expressed on B9 cells (P22607 23-806 F384L limits assumed): as the sequence (P22607 23-806 limits assumed) above, with F362L counted along it
As for B5, the “IC50 of FGF-stimulated growth of B9 cells expressing FGFR3 F384L” value was roughly 3 µg/mL.

The target of a further assay is T2, wild type FGFR3 expressed on cells. Nature of the assay: FACS. For orientation: Flow cytometry measures light scatter and fluorescence of single cells or particles in a stream.
Molecule B1 yielded a dissociation constant (Kd) of 6.5 nM.

As for B3, the Kd is 1.1 nM.

Regarding B5, the dissociation constant Kd was 0.7 nM.

B6 yielded a Kd of 43 nM.

Consider B7, for which the dissociation constant (Kd) is less than 1 nM.

B8: the dissociation constant (Kd) was 1.4 nM.

For a further assay, the target named is T1, FGFR1 (Table 1). The assay can be described thus: BIAcore and/or FACS. Background: Surface plasmon resonance follows binding to a sensor surface in real time, without labels.
Molecule B2 registered a Kd of 2.5 nM.

The molecule B7 had a Kd of 29 nM.

Take B8: the equilibrium dissociation constant (Kd) was 32 nM.

For the origin of these results see patent publication US20090175866A1 (published 2009).
